± gives the uncertainty stated by the source.
experiment: amyloid nucleation score (Sup35N fusion, yeast selection) (log enrichment); library NNK2; higher = more nucleation; inactive = no reads after selection
Outline: (§1)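 Three technical output replicates were used for random libraries. Psi-negative yeast expressing peptides of 20 random codons fused to Sup35N were induced with 100 μM copper sulfate for 24 hours and grown 7 days at 30°C on medium lacking adenine and uracil, and input and output plasmid inserts were Illumina-sequenced, excluding sequences with under 100 input reads. The nucleation score is the DiMSum log enrichment of output over input reads, centred on the mode score of non-aggregating sequences.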

Substance | amyloid nucleation score
GLSAIPFTDG | -0.722 ± 0.45
ESYKCVFRLIDWNIDYILTV | 0.855 ± 0.57
VDITRWIDVMVYF | -0.19 ± 0.62
GMTEWVGLAQERIYAWAKSE | 0.517 ± 0.36
LFIICNSVVHMDLASVGNVS | 8.409 ± 0.043
FFTLVVTVLPRRFYRFNYR | 0.043 ± 1
SCVVLNSYQCTAKRY | 0.284 ± 1.1
YEIRWFRGLIK | 0.495 ± 0.43
CLFSTCTRCCLSNGFNAITR | inactive
LAMYLWCTELP | -0.057 ± 0.63
IRNILWVLPKVVSDAFI | 0.325 ± 0.57
GQPRLRSY | 3.89 ± 0.1
LNLGILAFSKVKIGVFQFYE | 6.834 ± 0.037
YYGRSSLRNRMDVSDVQYPG | -0.67 ± 1.1
QQYSADLLRGYPCMSYVPVG | -0.091 ± 0.26
INKVFNCYFLFSGHIVGLRS | -0.321 ± 0.79
TTQDATLIVNSCNTFTLQVY | -0.389 ± 0.29
SPMNDLY | 0.041 ± 0.49
YGQIITSEKNRRNYMCPFSG | -0.393 ± 1.1
ILKIYVGQSSPLYFACLHIK | inactive
SPMTDLVRMRGRME | 0.051 ± 0.49
DNRGKLDWAPSSVVSVWLIC | 3.74 ± 0.089
RMLGALFGMHVNYRAVSELF | 1.49 ± 0.12
HRSCVDTDVSDGWKGVESEA | 0.599 ± 0.64
YPCKSDF | -1.66 ± 0.45

Substance | amyloid nucleation score
IHYFRTWVYHYGLRGFGIIR | 0.918 ± 0.58
MLKQSGDSVAHCLGKTGSQM | 0.371 ± 0.35
DYIIVRMCADILSGSVHGAM | -0.068 ± 0.45
SGVIEIMFEKSHRLHCCLFC | 1.08 ± 0.41
ARVNYLRTCKYASRNSFHRS | -0.913 ± 0.45
VPVTGSNLPAVCKGHGVEYG | -0.045 ± 0.41
GSSGLCIRSSLIYFVCQTVW | 6.903 ± 0.054
YYYTLLSLHHMFCVTYELSG | 5.443 ± 0.035
LSCWAYHVSWGWWHYIFAW | 1.11 ± 0.38
KCRISAMICDKAIFRVKRAC | 1.13 ± 0.4
YLGLDARLI | 0.661 ± 0.8
LVGWSLHSITFPEWRGHNPK | -0.991 ± 1.1
SPKTYRRIIGIGQVAVRVCK | 0.673 ± 0.25
SWLYLPWLLLQARILHR | -0.197 ± 0.24
FSKLVSIYFWGSGWWFCQWA | -0.532 ± 0.64
DACYGITLDCCETLARSMSC | -0.382 ± 0.76
CNMFCFDCCLWFGGMRISST | 8.315 ± 0.042
PWACIIYRLQGSPLINSRFN | 1.04 ± 0.12
GLGSPLHIWNIFVRRWYHRY | inactive
NRIFGTHLTFSGYS | -0.466 ± 0.5
LTRPCITV | 0.193 ± 0.55
NVWVSDFVGERAGDLHLSLY | 0.025 ± 1.1
NQDPRSRLLSNELYGCHFVL | -0.214 ± 0.28
PLVTCHDDEVQGMKFVSFFI | -0.451 ± 0.76
WTPTVFVDMHPSNGLVDILY | -0.896 ± 0.61

Substance | amyloid nucleation score
HNLLSRSAQPRGPLRPVRRH | 2.35 ± 0.16
NFNGGCKFKGDYYRKA | 1.14 ± 0.26
ATYAGMFMEEMPEHYFVWGT | 0.356 ± 0.74
NVRSWYLDNLFLTFAVA | 0.164 ± 0.63
GSFSGKYPRHR | -0.266 ± 1
VGRGASRNFSCFSLVKFREK | 3 ± 0.062
IRSSSSGNQSQVFSPRDNPP | -0.381 ± 0.31
PHNYLYSFFRRIYYRIGCLN | -0.461 ± 0.3
KITRWLCYIFTTLL | -1.7 ± 1.1
IDSDKEAFRTFLWTLDMYRL | -0.536 ± 1
CCCASR | inactive
HIIASCTV | 1.18 ± 0.38
SQLLDSLQNGRGCYSM | inactive
IYVECWRHRLILCIHA | 0.214 ± 0.49
DLYRYNMLKDVV | 4.403 ± 0.037
SSRSTCNINSYELSVSVQLR | 5.35 ± 0.075
HFDSYNRNSMSSRPSVGILS | -0.441 ± 1.1
RMPFHVFRIKFHFLLRVPIQ | 0.851 ± 0.52
NPLAIVAS | -1.77 ± 0.78
CYMYDSVTNWTYWLSG | -0.679 ± 0.26
FRVWSFFLNF | 3.12 ± 0.1
SRHRVLFFYKFVCLIWV | -0.8 ± 0.74
NFVLGKTSSVVCSHQSAALT | 0.505 ± 0.18
RRAGNIVLECSG | 3.68 ± 0.11
HYYLSTVSVYIGMPIRWFSG | 0.371 ± 0.38

Substance | amyloid nucleation score
PFLAFRGVWNFGL | 5.1 ± 0.068
WMGIWYGCVWVFGMVGANNR | 2.2 ± 0.063
NYDGVVVEDNVVGTRTSVAG | -0.007 ± 0.36
RMCMAIKERSY | 0.508 ± 0.38
KSDQLGCRLVDRGNCFSNRL | inactive
LPLYMTYACPVPTSIHRIIL | -0.06 ± 0.28
KHRWII | -0.287 ± 0.3
DVKWPYRLDFVKLYYIYKEG | -1.88 ± 0.53
SILLLIKVYFWGLCNPMILA | -1.65 ± 1
TRYIADRAVVSNRC | 0.81 ± 0.31
FQDWCHREYYLRLREVSLGG | inactive
SDAVSSILSFYRVPRAVGPE | inactive
NPWVRFVVSCLYAVSQQCGL | 4.66 ± 0.07
LLMSCPLSLCSEGVTSLVEG | 1.29 ± 0.3
WNECVFGAPAFSRE | 3.11 ± 0.15
AYTFSNSVNVCCVGVLEVIV | 5.8 ± 0.077
YCPPFLHNTWAYAKRTGRGS | -0.137 ± 0.61
NRAAKRGIRRHMSSYTYARV | 0.153 ± 0.36
SNGLGLQCGIRGKVFNELLS | -0.674 ± 0.42
CNIVNFMWAGENFR | 5.48 ± 0.086
TDNNNVYYVYSLQVIPTVSD | -0.496 ± 0.32
DTVALCNWLMRLESFSFAGQ | 1.83 ± 0.19

experiment: amyloid nucleation score (Sup35N fusion, yeast selection) (log enrichment); library NNK1; higher = more nucleation; inactive = no reads after selection
Outline: as §1

Substance | amyloid nucleation score
CLSCSNICFFIHSVNWDVFS | 5.27 ± 0.11
KDRFMSIYLVSYWSGLCTGL | inactive
HMLASNSRWNTAKGINWGFH | 0.758 ± 0.7
CYAGFCNQRLPHYLLKLQVL | -0.42 ± 1.7
LCKVPLNT | 1.36 ± 0.9
GIWPLGFGKFGSIFRFANVR | 0.939 ± 0.6
EHTRKGGSCNMLQRQPFCCT | 0.487 ± 0.52
RVAYSGEL | 0.196 ± 0.83
YYKYKLLLIKLVLGGAGRPV | -0.054 ± 0.56
VPSLRYYLYGSFFVI | -2.49 ± 1.7
RLFITCRAL | 2.52 ± 0.18
ASGFESCDTEVVGFRGVCYA | 1.42 ± 0.51
GWIRPVAKSRLWSFSPMEMI | -0.768 ± 0.62
GWVMLTCIRNAGVNLRPGSR | 1.58 ± 0.53
RVTDLYFASGGQLMQRSVLL | 0.331 ± 0.6
SSTILQLCSPNRRLRSTKLG | 1.97 ± 0.7
EFKLDNFQIVGYLLLTRRLI | 0.222 ± 0.32
LDCHD | -0.246 ± 0.44
LKGKTLVMSFFRSAKITVAH | inactive
NNPDTMSI | 0.44 ± 0.56
IHDAYVTESGYWVDV | 1.29 ± 0.66
VFMMSDTC | inactive
FNYNLCMFMHSVELFLIKIE | 8.162 ± 0.075
QLCGVVK | -1.07 ± 1.6

Substance | amyloid nucleation score
ISATCL | 0.858 ± 0.76
ASFEKFNNVTLGCSTDSE | 0.666 ± 0.48
FDVYFSVPFFTLLYNDPKWF | 2.35 ± 0.12
WGQLIRGRNRSSQGEEMRYL | -0.148 ± 0.26
FKLGFGVYIVVGKEGFVVSR | 2.02 ± 0.23
TSRGGLFYSGVLICAGGIRM | -0.032 ± 0.54
SFVCRCFSMCNGEILFLIPY | 0.644 ± 1
FWNFRVIC | 0.259 ± 1.4
LIFVNVSGL | 6.406 ± 0.054
TGCGERWGQSMVIGVSL | -0.102 ± 0.62
MRGFHSQRHSIAECVAIQKG | 0.359 ± 0.37
DPMHYL | 4.55 ± 0.098
GFNKR | -0.991 ± 2.4
LFIKVLLGFF | 0.32 ± 0.45
GFTYTC | -0.915 ± 1.1
MFCLALECEVHLGMHYYNHA | 0.906 ± 0.2
AVASMWPRGLALSRLVSLNA | 0.05 ± 0.47
LALHEWLWLFDTFH | -0.097 ± 0.62
VWLRNTKEMCFV | 1.64 ± 0.11
GIAWALKLRLVDAYPGMSMS | 0.168 ± 0.72
SLEVRNRCNVYVAAANLLVM | 2.76 ± 0.095
EIASLTRCYRSYRIVSWLRG | 0.341 ± 0.37
SGIRLM | -1.32 ± 1.8
HSSSSHGEKCGYVGNSHPSS | 0.691 ± 0.92

Substance | amyloid nucleation score
HFRVSDKDL | 1.2 ± 0.38
GAKFSTVSRENDDMHFAWLW | 1.19 ± 0.97
RRLTLYANFMRLEILSLNVN | 0.146 ± 0.43
SGSGRCTNLSCVGGFGKWLM | 0.714 ± 0.6
SPRAWRMGHGLVGWVMEKKG | 0.476 ± 1.1
QISVGTYWFANWCGIILNQV | 1.99 ± 0.28
YDRMRTSIVRACERNLSDMH | 0.786 ± 0.35
TNPLDPLLCNVYQVLDMPCM | 0.497 ± 0.58
SLAQFRWVV | 1.52 ± 0.13
MRYMCVRY | 0.676 ± 0.46
RVGQSCCDFT | -0.047 ± 1.1
MYTQGMYQEDSRDGNGW | -0.189 ± 0.25
IEVGYLSTCEFLVRMRKL | 0.346 ± 0.51
KSWQFMSRGVSGWFWRLVPQ | 0.743 ± 0.48
VVVYGCLYILVARRYDTIAW | 0.493 ± 0.84
QKIDNSIGQFYRKI | -1.15 ± 0.59
SAILVLFEVHFMAPLLCHYL | 0.208 ± 0.42
CSVGASAIGNM | 0.717 ± 0.59
GTDRSLAVIFKARCWFWATR | -1.14 ± 1.7
QYYFDLIDLGITVDVMS | 0.684 ± 0.84
HYMMADLGFWQYP | 0.138 ± 0.94
DWQSVRKFLRSVVIRMVSLV | -0.399 ± 0.24
LENYDRGDSTRHIDCRLLFL | 0.275 ± 0.52
RYWLYVKFGWYLTDGFYSGS | 0.665 ± 0.29

— the supplement of paper PMC12042874
